Columns and labels:
[1] = target: T1, 人MSLN.His抗原 (MSLN.His蛋白, 义翘神州科技股份有限公司, MSN-H5223) (human, UniProt Q13421 296-580, limits assumed); test: SPR (Biacore), antibody captured on protein A chip, MSLN.His as analyte at 5 concentrations
T1 construct: Bought protein; not shown: His tag

[2] = target: MSLN expressed on HEK293T cells (HEK293T MSLN细胞) (UniProt Q13421); test: flow cytometry on HEK293T cells expressing MSLN, anti-human IgG PE detection

T1 sequence (Q13421 other isoform, or with tags, fused parts or gaps limits assumed): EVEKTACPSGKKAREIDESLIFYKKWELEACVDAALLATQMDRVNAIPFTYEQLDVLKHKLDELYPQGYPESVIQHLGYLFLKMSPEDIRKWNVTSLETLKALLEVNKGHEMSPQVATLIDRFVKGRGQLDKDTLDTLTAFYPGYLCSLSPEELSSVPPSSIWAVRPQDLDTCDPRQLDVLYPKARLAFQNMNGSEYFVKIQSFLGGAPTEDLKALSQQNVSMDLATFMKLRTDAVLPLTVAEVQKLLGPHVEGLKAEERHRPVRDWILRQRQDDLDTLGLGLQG

- Kd [1]: 0.264 nM
- koff [1]: 1.82e-05 s⁻¹
- kon [1]: 69000 M⁻¹ s⁻¹
- EC50 [2]: 3.68 nM
B1: M2339 (重链抗体, 纳米抗体构建到pCDNA3.4-IgG4载体上表达) (Fc fusion)
heavy: QLQLGASGGGLVQPGGSLRLSCALSGFTLRELDEFAIGWFRQAPGKEREGVSCISGTGGITHYADSVKGRFTISRDIAKTTVYLQMNSLNSEDTAVYYCAADERCTDRLIRPPTYWGQGTQVTVSS
notes: also called 候选抗体; not shown: IgG4 constant part from the vector pCDNA3.4-IgG4

— patent publication CN114685666A (ZHEJIANG NANOMETER ANTIBODY TECH CENTER LIMITED COMPANY, dated 2022)
